We go through two molecules from PMC11931385, “Structural and functional analysis of cancer-associated missense variants in the retinoblastoma protein pocket domain” (The Journal of Biological Chemistry, 2025).

Holding throughout (experiment): fluorescence polarisation; 25 °C; unlabeled Rb^P titrated against 1.5 nM TMR-E2F1^TD or 7.5 nM TMR-E7^LxCxE; 25 mM Tris pH 8.0, 200 mM NaCl, 1 mM DTT, 0.1% Tween-20; 2 min incubation; quadratic fit; apparent Kd for the variants, Kd for WT
Conditions in all cases: both partners purified
On the technique in general: Polarisation of emitted light reports the rotation of a fluorescent probe.

One test addresses T1, Rb^P A488V (human, UniProt P06400 380-788, A488V).
T1 construct: also called variant 14
T1 sequence (looked up): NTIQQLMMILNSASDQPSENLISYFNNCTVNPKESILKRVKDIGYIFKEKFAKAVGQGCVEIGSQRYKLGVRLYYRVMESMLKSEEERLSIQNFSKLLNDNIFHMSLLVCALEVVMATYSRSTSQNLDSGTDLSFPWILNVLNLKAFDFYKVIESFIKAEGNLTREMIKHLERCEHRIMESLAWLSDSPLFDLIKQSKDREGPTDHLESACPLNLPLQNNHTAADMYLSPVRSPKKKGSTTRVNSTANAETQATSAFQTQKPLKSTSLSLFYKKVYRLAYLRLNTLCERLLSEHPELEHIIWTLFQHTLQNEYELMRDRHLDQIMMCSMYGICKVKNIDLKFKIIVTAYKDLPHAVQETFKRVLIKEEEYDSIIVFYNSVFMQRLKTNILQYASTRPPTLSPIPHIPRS

A further test deals with T2, Rb^P K530I (human, UniProt P06400 380-788, K530I).
T2 construct: also called variant 21
T2 sequence (looked up): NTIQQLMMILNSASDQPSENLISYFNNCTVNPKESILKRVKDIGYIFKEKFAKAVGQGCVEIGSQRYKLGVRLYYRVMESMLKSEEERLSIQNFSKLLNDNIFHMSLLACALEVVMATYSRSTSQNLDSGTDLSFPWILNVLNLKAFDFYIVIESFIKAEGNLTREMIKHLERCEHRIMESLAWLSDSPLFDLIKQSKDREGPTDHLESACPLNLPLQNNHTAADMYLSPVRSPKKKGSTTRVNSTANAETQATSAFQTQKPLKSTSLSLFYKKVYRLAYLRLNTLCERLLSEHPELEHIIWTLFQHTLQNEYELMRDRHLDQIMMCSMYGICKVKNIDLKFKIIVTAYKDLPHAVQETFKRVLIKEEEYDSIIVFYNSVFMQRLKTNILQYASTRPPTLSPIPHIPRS

For another test, the target named is T3, Rb^P Q504E (human, UniProt P06400 380-788, Q504E).
T3 construct: also called variant 19
T3 sequence (looked up): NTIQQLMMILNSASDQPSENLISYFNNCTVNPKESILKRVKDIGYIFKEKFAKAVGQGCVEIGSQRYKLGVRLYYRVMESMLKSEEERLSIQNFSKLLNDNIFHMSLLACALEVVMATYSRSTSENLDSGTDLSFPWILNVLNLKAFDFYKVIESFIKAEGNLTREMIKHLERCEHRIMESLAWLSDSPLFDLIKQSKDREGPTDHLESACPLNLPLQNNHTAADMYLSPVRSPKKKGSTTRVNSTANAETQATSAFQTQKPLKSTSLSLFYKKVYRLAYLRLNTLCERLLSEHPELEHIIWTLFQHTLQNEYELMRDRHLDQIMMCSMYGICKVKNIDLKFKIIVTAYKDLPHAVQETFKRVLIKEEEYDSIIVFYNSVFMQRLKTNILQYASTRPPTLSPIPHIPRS

The target of the next test is T4, Rb^P S463L (human, UniProt P06400 380-788, S463L).
T4 construct: also called variant 10
T4 sequence (looked up): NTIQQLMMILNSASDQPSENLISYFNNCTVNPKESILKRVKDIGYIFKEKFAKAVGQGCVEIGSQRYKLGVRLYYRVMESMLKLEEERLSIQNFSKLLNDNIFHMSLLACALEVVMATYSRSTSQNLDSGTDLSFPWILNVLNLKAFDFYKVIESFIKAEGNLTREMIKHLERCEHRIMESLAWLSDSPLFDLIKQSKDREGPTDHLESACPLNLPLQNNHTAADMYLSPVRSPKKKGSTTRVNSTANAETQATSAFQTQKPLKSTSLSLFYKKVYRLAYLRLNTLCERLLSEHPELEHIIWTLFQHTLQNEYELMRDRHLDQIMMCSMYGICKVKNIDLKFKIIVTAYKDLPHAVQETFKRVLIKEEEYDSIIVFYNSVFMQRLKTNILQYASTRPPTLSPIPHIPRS

Another test concerns the target T5, Rb^P Q444R (human, UniProt P06400 380-788, Q444R).
T5 construct: also called variant 4
T5 sequence (looked up): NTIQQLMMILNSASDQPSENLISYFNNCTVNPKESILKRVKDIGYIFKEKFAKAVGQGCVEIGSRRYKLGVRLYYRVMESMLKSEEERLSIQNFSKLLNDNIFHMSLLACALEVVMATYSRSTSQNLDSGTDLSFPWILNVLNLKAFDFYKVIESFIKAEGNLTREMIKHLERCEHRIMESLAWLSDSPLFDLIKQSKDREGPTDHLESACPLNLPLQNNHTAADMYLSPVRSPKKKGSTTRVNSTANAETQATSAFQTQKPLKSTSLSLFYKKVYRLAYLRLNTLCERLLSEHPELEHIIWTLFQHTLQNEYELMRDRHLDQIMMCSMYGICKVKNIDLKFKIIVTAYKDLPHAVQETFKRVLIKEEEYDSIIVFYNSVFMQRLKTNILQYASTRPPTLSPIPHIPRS

No end group written: not given here. TMR = tetramethyl rhodamine dye

B1: TMR-E2F1^TD, peptide of the E2F1 transactivation domain (peptide)
peptide: {TMR}-GEGIRDLFDCDFGDLTPLD
notes: also called E2F^TD; source: synthetic peptide, bought: GenScript
As for B1, the Kd with Rb^P A488V was determined as 53 nM; with Rb^P K530I, 945 nM; with Rb^P Q504E it was 18 nM; in the test with Rb^P S463L it was 26 nM; with Rb^P Q444R it was 15 nM.

B2: TMR-E7^LxCxE, LxCxE peptide of the E7 oncoprotein from HPV (peptide)
peptide: DLYCYEQLN
modifications: also: TMR label, position not given here
notes: source: synthetic peptide, bought: GenScript
In the case of B2, the Kd worked out at 9 nM with Rb^P A488V; 8 nM in the test with Rb^P K530I; 5 nM with Rb^P Q504E; 10 nM with Rb^P S463L; 7 nM with Rb^P Q444R.
